The record followed here is US8669345 (Biogen, dated 2014).

In assay [1] the target is T1, peptide DNAQLRVVDPTT (rat).
T1 peptide: DNAQLRVVDPTT
Description: endoprotease Asp-N digest of p-617.

The target of assay [2] is T2, Nogo receptor-1 (species and construct not stated).
T2 sequence (Q9BZR6 27-447, species assumed, looked up): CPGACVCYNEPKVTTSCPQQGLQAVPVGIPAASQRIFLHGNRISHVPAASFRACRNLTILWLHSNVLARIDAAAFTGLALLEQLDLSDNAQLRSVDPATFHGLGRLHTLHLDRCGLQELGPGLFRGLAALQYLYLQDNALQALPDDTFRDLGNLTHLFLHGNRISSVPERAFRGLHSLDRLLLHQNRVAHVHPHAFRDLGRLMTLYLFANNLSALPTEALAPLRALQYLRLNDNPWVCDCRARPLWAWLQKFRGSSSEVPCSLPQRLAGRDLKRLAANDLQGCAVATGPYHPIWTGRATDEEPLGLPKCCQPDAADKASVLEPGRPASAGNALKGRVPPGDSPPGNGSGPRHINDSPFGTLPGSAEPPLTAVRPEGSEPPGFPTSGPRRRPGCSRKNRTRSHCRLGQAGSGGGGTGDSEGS
The assay is described as follows: surface plasmon resonance (BIAcore) per the text; NgR1 construct not stated.

Assay [3] deals with T3, 10 kDa CNBr fragment of sNgR310 (aa 241-aa 310) (rat, UniProt Q99M75 241-310).
T3 construct: CNBr cleavage product of rat sNgR310
T3 chain: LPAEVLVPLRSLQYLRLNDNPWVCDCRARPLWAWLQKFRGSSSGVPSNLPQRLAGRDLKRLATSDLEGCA
The assay is described as follows: western blot. The procedure: (§1) A recombinant fragment of the rat NgR1 that contains all 8 LRR domains and the N- and C-terminal caps (sNgR310) was treated with either acid or cyanogen bromide (CNBr) and separated the fragments by gel electrophoresis.
(In general: Immunoblotting shows a protein as a band on a membrane.)

Assay [4] addresses T4, 15 kDa acid fragment of sNgR310 (aa 27-aa 122) (rat, UniProt Q99M75 27-122).
T4 construct: acid cleavage product of rat sNgR310
T4 chain: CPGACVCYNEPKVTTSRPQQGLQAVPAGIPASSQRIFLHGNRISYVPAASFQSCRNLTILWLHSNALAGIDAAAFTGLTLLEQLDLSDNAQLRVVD
The assay is described as follows: western blot. Here is the method: as §1

The target in assay [5] is T5, 35 kDa CNBr fragment of sNgR310 (aa 27-aa 229) (rat, UniProt Q99M75 27-229).
T5 construct: CNBr cleavage product of rat sNgR310; also called 33/35 kDa doublet
T5 chain: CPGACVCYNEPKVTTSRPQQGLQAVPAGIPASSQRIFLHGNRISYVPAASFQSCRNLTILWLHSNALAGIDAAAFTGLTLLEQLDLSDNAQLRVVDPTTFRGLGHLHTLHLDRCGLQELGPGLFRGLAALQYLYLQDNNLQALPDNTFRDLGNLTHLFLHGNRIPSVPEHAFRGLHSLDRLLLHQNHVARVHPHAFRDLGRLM
Description: western blot. The procedure: as §1

Assay [6] deals with T6, tryptic peptide AAAFTGLTLLEQLDLSDNAQLR (rat).
T6 construct: tryptic digest peptide of rat sNgR310
T6 peptide: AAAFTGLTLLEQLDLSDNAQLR
Description: tryptic digest of sNgR310, MS and sequence analysis.

In assay [7] the target is T7, peptide LDLSDNAALRVVDPTT (Q117A).
T7 construct: also called Gln17Ala (so in the source)
T7 peptide: LDLSDNAALRVVDPTT
Description: ELISA, peptides immobilized on MaxiSorp plate.

The target in assay [8] is T8, peptide LDLSDNAQLHVVDPTT (R119H).
T8 construct: also called Arg119His; R11911 (so in the source)
T8 peptide: LDLSDNAQLHVVDPTT
Description: ELISA, peptides immobilized on MaxiSorp plate.

The target in assay [9] is T9, peptide LDALSDNAQLR (Scrambled Fragment #2).
T9 peptide: LDALSDNAQLR
Description: MS of peptides bound by 7E11.

Assay [10] addresses T10, peptide LDLSDDAELR (deaminated wild-type fragment).
T10 construct: deamination at Asn115 and Gln117
T10 peptide: LDLSDDAELR
Description: MS of peptides bound by 7E11.

The target of assay [11] is T11, peptide LDLASDNAQLR (Scrambled Fragment #1).
T11 peptide: LDLASDNAQLR
Description: MS of peptides bound by 7E11.

Assay [12] concerns the target T12, peptide LDLSDNAQLR (Wild-type Fragment) (rat).
T12 peptide: LDLSDNAQLR
Description: MS of peptides bound by 7E11.

In assay [13] the target is T13, peptide LDALSDDAELR (Scrambled Fragment #2, deaminated).
T13 peptide: LDALSDDAELR
The assay is described as follows: MS of peptides bound by 7E11.

For assay [14], the target named is T14, peptide LDLASDDAELR (Scrambled Fragment #1, deaminated).
T14 peptide: LDLASDDAELR
The assay is described as follows: MS of peptides bound by 7E11.

In assay [15] the target is T15, peptide LDLSSDNAQLR (Scrambled Fragment #3).
T15 peptide: LDLSSDNAQLR
Description: MS of peptides bound by 7E11.

B1: monoclonal antibody 7E11 (antibody, V domains shown)
VH: VQLQESGAELVMPGASVKMSCKASGYTFTDYWMHWVKQRPGQGLEWIGAIDPSDSYSSYNQNFKGKATLTVDGSSSTAYMQLSSLTSEDSAVYYCARRITEAGAWFAYWGQGTTVT
VL: DVVMTQTPLSLPVSLGDQASISCRSSQSLVHSNGNTYLHWYLQKPGQSPKLLIYKVSNRFSGVPDRFSGSGSGTDFTLKISRVDAEDLGVYFCSQSTHVPFTFGGGTKLEIKR
notes: murine IgG1, kappa; immunogen: peptide of rat NgR1 residues 110-125; also called mAb 7E11; HB 7E11 (ATCC PTA-4587)
A word on the Kd: it is the constant that tells how readily two partners part at equilibrium. Regarding B1, the binding result in assay [1] was “binds”; in assay [3], “no binding”; in assay [4] it was “binds”; in assay [5], “binds”; in [6] it was “binds”; in assay [9], “binds”. Moreover, the binding result in [10], in [11], in assay [12], in assay [13], in assay [14] and in [15] was “binds” throughout. Further, the Kd in assay [2] stood at 100 nM. Besides, the “fold increase of EC50 against the original peptide” value is 30 fold in [7] and 25 fold in assay [8].
